Laboratory results published in patent US20140286957A1 (Teva, published 2014).
Values joined by “and” are separate entries in the source; they are usually repeats but may differ in a detail not shown here. Equal values may be shown once. Read-outs that look alike come from different tables or passages of the source. One block for each molecule: values may come before it.

What was measured:
Human CD1d on cells [1] = target: T1, Human CD1d on cells (human, UniProt P15813 20-335); assay: cell-based or functional assay
T1 sequence (looked up): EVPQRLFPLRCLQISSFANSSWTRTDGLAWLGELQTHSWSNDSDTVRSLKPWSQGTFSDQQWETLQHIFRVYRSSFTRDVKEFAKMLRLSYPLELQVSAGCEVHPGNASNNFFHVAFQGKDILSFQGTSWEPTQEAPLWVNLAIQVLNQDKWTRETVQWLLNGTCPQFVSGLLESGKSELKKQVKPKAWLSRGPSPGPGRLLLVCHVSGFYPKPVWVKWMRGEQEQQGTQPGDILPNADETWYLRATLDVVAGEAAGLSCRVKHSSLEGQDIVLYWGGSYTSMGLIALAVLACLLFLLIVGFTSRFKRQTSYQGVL

Human CD1d on cells [2] = target: T1, Human CD1d on cells; assay: cell-based or functional assay; remark: listed apart in the source
[3] = target: T2, CD1d tetramer loaded with α-GalCer (ProImmune) (UniProt P15813 20-301, limits assumed); assay: flow cytometry, inhibition of CD1d tetramer (10 nM) binding to NKTCR on J.RT3-T3.5 cells
T2 construct: Bought reagent; also called fluorochrome-conjugated CD1d tetramer
T2 sequence (looked up): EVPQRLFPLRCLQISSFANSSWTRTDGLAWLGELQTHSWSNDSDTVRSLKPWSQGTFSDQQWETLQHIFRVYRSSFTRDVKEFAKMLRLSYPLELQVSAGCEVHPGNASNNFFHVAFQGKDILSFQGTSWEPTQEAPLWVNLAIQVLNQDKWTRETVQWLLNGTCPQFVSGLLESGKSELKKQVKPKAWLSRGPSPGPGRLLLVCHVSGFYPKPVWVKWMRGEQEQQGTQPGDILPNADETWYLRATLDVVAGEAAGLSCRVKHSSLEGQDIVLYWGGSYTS

[4] = target: Cynomolgus macaque CD1d on cells (cynomolgus macaque); assay: flow cytometry, biotinylated antibody and streptavidin-PE on cynomolgus PBMC, gated live cells
Human CD1d on cells [5] = target: T1, Human CD1d on cells; assay: cell-based or functional assay; remark: listed apart in the source
Human CD1d on cells [6] = target: T1, Human CD1d on cells; assay: cell-based or functional assay; remark: listed apart in the source
Human CD1d on cells [7] = target: T1, Human CD1d on cells; assay: cell-based or functional assay; remark: listed apart in the source
Human CD1d on cells [8] = target: T1, Human CD1d on cells; assay: cell-based or functional assay; remark: listed apart in the source
Human CD1d on cells [9] = target: T1, Human CD1d on cells; assay: cell-based or functional assay; remark: listed apart in the source
Human CD1d on cells [10] = target: T1, Human CD1d on cells; assay: cell-based or functional assay; remark: listed apart in the source
Human CD1d on cells [11] = target: T1, Human CD1d on cells; assay: cell-based or functional assay; remark: listed apart in the source
Human CD1d on cells [12] = target: T1, Human CD1d on cells; assay: cell-based or functional assay; remark: listed apart in the source
Human CD1d on cells [13] = target: T1, Human CD1d on cells; assay: cell-based or functional assay; remark: listed apart in the source
Human CD1d on cells [14] = target: T1, Human CD1d on cells; assay: cell-based or functional assay; remark: listed apart in the source
Human CD1d on cells [15] = target: T1, Human CD1d on cells; assay: cell-based or functional assay; remark: listed apart in the source
Human CD1d on cells [16] = target: T1, Human CD1d on cells; assay: cell-based or functional assay; remark: listed apart in the source

- IFN-γ EC50 (C24:1 βGluCer, moDC) (Human CD1d on cells [2]): 0.112 µg/mL
- IFN-γ EC50 (primary CD14+ cells) (Human CD1d on cells [2]): 0.168 µg/mL
- IL-2 release EC50 (U-937 + NKTCR cell line) (Human CD1d on cells [2]): 0.0773 µg/mL
- IL-4 EC50 (C24:1 βGluCer, moDC) (Human CD1d on cells [2]): 0.113 µg/mL
- IL-5 EC50 (C24:1 βGluCer, moDC) (Human CD1d on cells [2]): 0.0864 µg/mL
- IL-13 EC50 (C24:1 βGluCer, moDC) (Human CD1d on cells [2]): 0.0668 µg/mL
- IL-13 EC50 (primary CD14+ cells) (Human CD1d on cells [2]): 0.222 µg/mL
- NKT IFN-γ EC50 (moDC) (Human CD1d on cells [2]): > 1 µg/mL
- TNF-α EC50 (C24:1 βGluCer, moDC) (Human CD1d on cells [2]): 0.0297 µg/mL
- EC50 [3]: 0.775 µg/mL
Molecule: anti-CD1d antibody 51.1 (eBioscience)

- percent CD1d-positive cells, Donor 1 [4]: 4.14%
- percent CD1d-positive cells, Donor 2 [4]: 4.22%
Molecule: irrelevant specificity negative control antibody (human IgG1)

Continued, molecule first:

Molecule: anti-CD1d antibody 42 (BD Biosciences)
- NKT IFN-γ EC50 (moDC) (Human CD1d on cells [1]): 0.116 µg/mL
- NKT IL-13 EC50 (moDC) (Human CD1d on cells [1]): 0.0175 µg/mL
- IFN-γ EC50 (C24:1 βGluCer, moDC) (Human CD1d on cells [2]): 0.139 µg/mL
- IFN-γ EC50 (THP-1) (Human CD1d on cells [2]): 0.429 µg/mL
- IFN-γ EC50 (primary CD14+ cells) (Human CD1d on cells [2]): 1.39 µg/mL
- IL-2 release EC50 (U-937 + NKTCR cell line) (Human CD1d on cells [2]): 0.111 µg/mL
- IL-4 EC50 (C24:1 βGluCer, moDC) (Human CD1d on cells [2]): 0.133 µg/mL
- IL-4 EC50 (THP-1) (Human CD1d on cells [2]): 0.0761 µg/mL
- IL-4 EC50 (primary CD14+ cells) (Human CD1d on cells [2]): 0.186 µg/mL
- IL-5 EC50 (C24:1 βGluCer, moDC) (Human CD1d on cells [2]): 0.0819 µg/mL
- IL-5 EC50 (THP-1) (Human CD1d on cells [2]): 0.0647 µg/mL
- IL-5 EC50 (primary CD14+ cells) (Human CD1d on cells [2]): 0.108 µg/mL
- IL-13 EC50 (C24:1 βGluCer, moDC) (Human CD1d on cells [2]): 0.0523 µg/mL
- IL-13 EC50 (THP-1) (Human CD1d on cells [2]): 0.154 µg/mL
- IL-13 EC50 (primary CD14+ cells) (Human CD1d on cells [2]): 0.844 µg/mL
- NKT IFN-γ EC50 (moDC) (Human CD1d on cells [2]): > 1 µg/mL
- NKT IL-4 EC50 (moDC) (Human CD1d on cells [2]): 0.137 µg/mL
- NKT IL-5 EC50 (moDC) (Human CD1d on cells [2]): 0.287 µg/mL
- TNF-α EC50 (C24:1 βGluCer, moDC) (Human CD1d on cells [2]): 0.00569 µg/mL
- EC50 [3]: 1.44 µg/mL

B1: 401.11 (antibody, V domains shown)
VH: QVQLVGSGGGLVKPGRSLRLSCAASGFTFDDYAMHWVRQAPGKGLEWVATIIWNSAIIGYADSVKGRFIVSRDNAKNSLYLQMNSLRAEDMALYYCAKDMCSSSGCPDGYFDSWGQGTLVTVSS
VL: DIQMTQSPSSVSASVGDRVTITCRASQHISSWLAWYQQKPGKAPNLLIYAASSLQSGVSSRFSGSGSGTDFTLTISSLQPEDFATYYCQQANRFPLTFGGGTKLEIKR
- IL-2 release EC50 (U-937 + NKTCR cell line) (Human CD1d on cells [5]): 0.0053 µg/mL
- IFN-γ EC50 (C24:1 βGluCer, moDC) (Human CD1d on cells [6]): 0.00238 µg/mL
- IL-4 EC50 (C24:1 βGluCer, moDC) (Human CD1d on cells [6]): 0.00145 µg/mL
- IL-5 EC50 (C24:1 βGluCer, moDC) (Human CD1d on cells [6]): 0.00123 µg/mL
- IL-13 EC50 (C24:1 βGluCer, moDC) (Human CD1d on cells [6]): 0.00555 µg/mL
- TNF-α EC50 (C24:1 βGluCer, moDC) (Human CD1d on cells [6]): 0.00179 µg/mL
- NKT IFN-γ EC50 (THP-1) (Human CD1d on cells [7]): 0.0552 µg/mL
- NKT IL-4 EC50 (THP-1) (Human CD1d on cells [7]): 0.00298 µg/mL
- NKT IL-5 EC50 (THP-1) (Human CD1d on cells [7]): 0.00696 µg/mL
- NKT IL-13 EC50 (THP-1) (Human CD1d on cells [7]): 0.0272 µg/mL
- NKT TNF EC50 (THP-1) (Human CD1d on cells [7]): 0.00918 µg/mL
- NKT IFN-γ EC50 (moDC) (Human CD1d on cells [8]): 0.0394 µg/mL
- NKT IL-4 EC50 (moDC) (Human CD1d on cells [8]): 0.0173 µg/mL
- NKT IL-5 EC50 (moDC) (Human CD1d on cells [8]): 0.0475 µg/mL
- NKT IL-13 EC50 (moDC) (Human CD1d on cells [8]): 0.0831 µg/mL
- NKT TNF EC50 (moDC) (Human CD1d on cells [8]): 0.0169 µg/mL
- NKT IFN-γ EC50 (THP-1) (Human CD1d on cells [9]): 0.00375 µg/mL
- NKT IFN-γ EC50 (moDC) (Human CD1d on cells [9]): 0.000857 µg/mL
- NKT IL-4 EC50 (THP-1) (Human CD1d on cells [9]): 0.00288 µg/mL
- NKT IL-4 EC50 (moDC) (Human CD1d on cells [9]): 0.00686 µg/mL
- NKT IL-4 EC50 (moDC) (Human CD1d on cells [10]): 0.00763 µg/mL and 0.00655 µg/mL
- NKT IL-13 EC50 (moDC) (Human CD1d on cells [10]): 0.0227 µg/mL and 0.0196 µg/mL
- IFN-γ EC50 (primary CD14+ cells) (Human CD1d on cells [11]): 0.0068 µg/mL
- IL-4 EC50 (primary CD14+ cells) (Human CD1d on cells [11]): 0.0059 µg/mL
- IL-5 EC50 (primary CD14+ cells) (Human CD1d on cells [11]): 0.0062 µg/mL
- IL-13 EC50 (primary CD14+ cells) (Human CD1d on cells [11]): 0.0121 µg/mL
- NKT IFN-γ EC50 (THP-1) (Human CD1d on cells [12]): 0.00375 µg/mL
- NKT IFN-γ EC50 (moDC) (Human CD1d on cells [12]): 0.000857 µg/mL
- IFN-γ EC50 (THP-1) (Human CD1d on cells [13]): 0.0038 µg/mL
- IL-4 EC50 (THP-1) (Human CD1d on cells [13]): 0.0019 µg/mL
- IL-5 EC50 (THP-1) (Human CD1d on cells [13]): 0.0017 µg/mL
- IL-13 EC50 (THP-1) (Human CD1d on cells [13]): 0.0025 µg/mL
- fold potency against 51.1, IL-2 release (Human CD1d on cells [14]): ~15 fold
- fold potency against antibody 42 (C24:1 βGluCer) (Human CD1d on cells [14]): ≤ 58 fold
- fold potency against antibody 42 (THP-1 assay) (Human CD1d on cells [14]): ≤ 114 fold
- fold potency against antibody 42 (moDC assay) (Human CD1d on cells [14]): ≤ 200 fold
- fold potency against antibody 42, IL-2 release (Human CD1d on cells [14]): ~20 fold
- fold potency against antibody 51.1 (C24:1 βGluCer) (Human CD1d on cells [14]): ≤ 47 fold
- NKT IFN-γ EC50 (THP-1) (Human CD1d on cells [15]): 0.00233 µg/mL
- NKT IFN-γ EC50 (moDC) (Human CD1d on cells [15]): 0.0235 µg/mL
- NKT IL-4 EC50 (THP-1) (Human CD1d on cells [15]): 0.00136 µg/mL
- NKT IL-4 EC50 (moDC) (Human CD1d on cells [15]): 0.0128 µg/mL
- NKT IL-13 EC50 (THP-1) (Human CD1d on cells [15]): 0.00329 µg/mL
- EC50 [3]: 0.284 µg/mL
- NKT IFN-γ EC50 (moDC) (Human CD1d on cells [16]): 0.0124 µg/mL
- NKT IL-4 EC50 (moDC) (Human CD1d on cells [16]): 0.00198 µg/mL
- NKT IL-5 EC50 (moDC) (Human CD1d on cells [16]): 0.00225 µg/mL
- NKT IL-13 EC50 (moDC) (Human CD1d on cells [16]): 0.00236 µg/mL
